In the supplement of paper PMC5998384:

Tests used:
HeLa Kyoto [1] = assay: solubility in G1/S (NP-40 vs SDS abundance) (log2 ratio); higher = more soluble; details: cell cycle stage: G1/S
HeLa Kyoto [2] = assay: melting temperature (median over replicates), in situ; higher = more thermally stable
HeLa Kyoto [3] = assay: solubility change mitosis vs G1/S (difference of NP-40 vs SDS log2 ratios) (log2 ratio difference); higher = more soluble in mitosis
HeLa Kyoto [4] = assay: thermal stability score vs G1/S (z-score of summed log2 fold changes over temperatures); higher = more thermally stable than in G1/S
[5] = cell cycle stage: early G1 (4.5 h after nocodazole release)
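Wherever melting temperature (median over replicates), in situ is given: HeLa Kyoto cells synchronized by double thymidine or nocodazole block, proteins quantified by TMT10plex mass spectrometry, three independent biological replicates.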
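Wherever solubility change mitosis vs G1/S (difference of NP-40 vs SDS log2 ratios) is given: synchronized HeLa Kyoto cells (double thymidine block for G1/S, nocodazole release for mitosis), protein amounts in NP-40 versus SDS lysates quantified by mass spectrometry, three biological replicates.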
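Wherever solubility in G1/S (NP-40 vs SDS abundance) is given: HeLa Kyoto cells arrested at G1/S by double thymidine block, proteins quantified by TMT10plex mass spectrometry in mild NP-40 versus SDS extracts, three biological replicates.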
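Wherever thermal stability score vs G1/S (z-score of summed log2 fold changes over temperatures) is given: synchronized HeLa Kyoto cells, proteins quantified by TMT10plex mass spectrometry, three biological replicates, mitosis taken 0.5 h after nocodazole release, G1/S directly after double thymidine block.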

| Sequence | solubility in G1/S (log2) (HeLa Kyoto [1]) | melting temperature (HeLa Kyoto [2]; cell cycle stage: G1/S) [°C] | melting temperature (HeLa Kyoto [2]; cell cycle stage: mitosis) [°C] | solubility change mitosis (log2) (HeLa Kyoto [3]) | thermal stability score (HeLa Kyoto [4]; [5]) | thermal stability score (HeLa Kyoto [4]; cell cycle stage: mitosis) |
| --- | --- | --- | --- | --- | --- | --- |
| MLDSLLALGGLVLLRDSVEWEGRSLLKALVKKSALCGEQVHILGCEVSEEEFREGFDSDINNRLVYHDFFRDPLNWSKTEEAFPGGPLGALRAMCKRTDPVPVTIALDSLSWLLLRLPCTTLCQVLHAVSHQDSCPGDSSSVGKVSVLGLLHEELHGPGPVGALSSLAQTEVTLGGTMGQASAHILCRRPRQRPTDQTQWFSILPDFSLDLQEGPSVESQPYSDPHIPPVDPTTHLTFNLHLSKKEREARDSLILPFQFSSEKQQALLRPRPGQATSHIFYEPDAYDDLDQEDPDDDLDI [ELP5] | 0.313 | 54.9 | 53.9 | -0.11 | -2.95 | -4.18 |
| MAAAAAGTATSQRFFQSFSDALIDEDPQAALEELTKALEQKPDDAQYYCQRAYCHILLGNYCVAVADAKKSLELNPNNSTAMLRKGICEYHEKNYAAALETFTEGQKLDIETGFHRVGQAGLQLLTSSDPPALDSQSAGITGADANFSVWIKRCQEAQNGSESEVWTHQSKIKYDWYQTESQVVITLMIKNVQKNDVNVEFSEKELSALVKLPSGEDYNLKLELLHPIIPEQSTFKVLSTKIEIKLKKPEAVRWEKLEGQGDVPTPKQFVADVKNLYPSSSPYTRNWDKLVGEIKEEEKNEKLEGDAALNRLFQQIYSDGSDEVKRAMNKSFMESGGTVLSTNWSDVGKRKVEINPPDDMEWKKY [SUGT1] | 0.138 | 51.5 | 52 | -0.0323 | 0.39 | -0.171 |
| MSDYSTGGPPPGPPPPAGGGGGAGGAGGGPPPGPPGAGDRGGGGPGGGGPGGGSAGGPSQPPGGGGPGIRKDAFADAVQRARQIAAKIGGDAATTVNNSTPDFGFGGQKRQLEDGDQPESKKLASQGDSISSQLGPIHPPPRTSMTEEYRVPDGMVGLIIGRGGEQINKIQQDSGCKVQISPDSGGLPERSVSLTGAPESVQKAKMMLDDIVSRGRGGPPGQFHDNANGGQNGTVQEIMIPAGKAGLVIGKGGETIKQLQERAGVKMILIQDGSQNTNVDKPLRIIGDPYKVQQACEMVMDILRERDQGGFGDRNEYGSRIGGGIDVPVPRHSVGVVIGRSGEMIKKIQNDAGVRIQFKQDDGTGPEKIAHIMGPPDRCEHAARIINDLLQSLRSGPPGPPGGPGMPPGGRGRGRGQGNWGPPGGEMTFSIPTHKCGLVIGRGGENVKAINQQTGAFVEISRQLPPNGDPNFKLFIIRGSPQQIDHAKQLIEEKIEGPLCPVGPGPGGPGPAGPMGPFNPGPFNQGPPGAPPHAGGPPPHQYPPQGWGNTYPQWQPPAPHDPSKAAAAAADPNAAWAAYYSHYYQQPPGPVPGPAPAPAAPPAQGEPPQPPPTGQSDYTKAWEEYYKKIGQQPQQPGAPPQQDYTKAWEEYYKKQAQVATGGGPGAPPGSQPDYSAAWAEYYRQQAAYYGQTPGPGGPQPPPTQQGQQQAQ [KHSRP] | 0.523 | 55.4 | 55.7 | 0.0471 | 1.92 | 1.64 |
| MAERGYSFSLTTFSPSGKLVQIEYALAAVAGGAPSVGIKAANGVVLATEKKQKSILYDERSVHKVEPITKHIGLVYSGMGPDYRVLVHRARKLAQQYYLVYQEPIPTAQLVQRVASVMQEYTQSGGVRPFGVSLLICGWNEGRPYLFQSDPSGAYFAWKATAMGKNYVNGKTFLEKRYNEDLELEDAIHTAILTLKESFEGQMTEDNIEVGICNEAGFRRLTPTEVKDYLAAIA [PSMA2] | 0.391 | 58.3 | 60.8 | -0.045 | -1.52 | -1.53 |
| MAEGNHRKKPLKVLESLGKDFLTGVLDNLVEQNVLNWKEEEKKKYYDAKTEDKVRVMADSMQEKQRMAGQMLLQTFFNIDQISPNKKAHPNMEAGPPESGESTDALKLCPHEEFLRLCKERAEEIYPIKERNNRTRLALIICNTEFDHLPPRNGADFDITGMKELLEGLDYSVDVEENLTARDMESALRAFATRPEHKSSDSTFLVLMSHGILEGICGTVHDEKKPDVLLYDTIFQIFNNRNCLSLKDKPKVIIVQACRGANRGELWVRDSPASLEVASSQSSENLEEDAVYKTHVEKDFIAFCSSTPHNVSWRDSTMGSIFITQLITCFQKYSWCCHLEEVFRKVQQSFETPRAKAQMPTIERLSMTRYFYLFPGN [CASP4] | 0.0521 | – | 50.5 | -0.0831 | 0.457 | 0.45 |
| MGKLRRRYNIKGRQQAGPGPSKGPPEPPPVQLELEDKDTLKGVDASNALVLPGKKKKKTKAPPLSKKEKKPLTKKEKKVLQKILEQKEKKSQRAEMLQKLSEVQASEAEMRLFYTTSKLGTGNRMYHTKEKADEVVAPGQEKISSLSGAHRKRRRWPSAEEEEEEEEESESELEEESELDEDPAAEPAEAGVGTTVAPLPPAPAPSSQPVPAGMTVPPPPAAAPPLPRALAKPAVFIPVNRSPEMQEERLKLPILSEEQVIMEAVAEHPIVIVCGETGSGKTTQVPQFLYEAGFSSEDSIIGVTEPRRVAAVAMSQRVAKEMNLSQRVVSYQIRYEGNVTEETRIKFMTDGVLLKEIQKDFLLLRYKVVIIDEAHERSVYTDILIGLLSRIVTLRAKRNLPLKLLIMSATLRVEDFTQNPRLFAKPPPVIKVESRQFPVTVHFNKRTPLEDYSGECFRKVCKIHRMLPAGGILVFLTGQAEVHALCRRLRKAFPPSRARPQEKDDDQKDSVEEMRKFKKSRARAKKARAEVLPQINLDHYSVLPAGEGDEDREAEVDEEEGALDSDLDLDLGDGGQDGGEQPDASLPLHVLPLYSLLAPEKQAQVFKPPPEGTRLCVVATNVAETSLTIPGIKYVVDCGKVKKRYYDRVTGVSSFRVTWVSQASADQRAGRAGRTEPGHCYRLYSSAVFGDFEQFPPPEITRRPVEDLILQMKALNVEKVINFPFPTPPSVEALLAAEELLIALGALQPPQKAERVKQLQENRLSCPITALGRTMATFPVAPRYAKMLALSRQHGCLPYAITIVASMTVRELFEELDRPAASDEELTRLKSKRARVAQMKRTWAGQGASLKLGDLMVLLGAVGACEYASCTPQFCEANGLRYKAMMEIRRLRGQLTTAVNAVCPEAELFVDPKMQPPTESQVTYLRQIVTAGLGDHLARRVQSEEMLEDKWRNAYKTPLLDDPVFIHPSSVLFKELPEFVVYQEIVETTKMYMKGVSSVEVQWIPALLPSYCQFDKPLEEPAPTYCPERGRVLCHRASVFYRVGWPLPAIEVDFPEGIDRYKHFARFLLEGQVFRKLASYRSCLLSSPGTMLKTWARLQPRTESLLRALVAEKADCHEALLAAWKKNPKYLLAEYCEWLPQAMHPDIEKAWPPTTVH [DHX37] | -1 | 50.3 | – | 0.635 | 0.32 | 0.922 |
